The experiment deals with RBD (a.a. 333-529) of SARS-CoV-2 S fused to the Fc region of IgG1 (SARS-CoV-2; human) (UniProt P0DTC2). Nature of the experiment: BLI, RBD-IgG1 captured on anti-human Fc sensor, dimeric sACE22 as analyte (avid).

The substance “untagged sACE22.v2.4 manufactured in ExpiCHO-S cells (from UniProt Q9BYF1 19-732) (receptor)” gave an association rate constant (kon) of 200000 M⁻¹ s⁻¹.

A word on the kon: it is the second-order rate constant of association. A high value points to fast association.

Source of the values: patent US20230193235A1.
